Data as given in patent publication US20150166663A1.
Each block holds one substance with its values, some of them ahead of it.

Experiments:
[1] = biological target: cynomolgus αVβ6 on cells (cynomolgus); experiment: FACS, HEK-293 cells transfected with cynomolgus αV and β6, day 1
[2] = biological target: human αV on parental A375M cells (αVβ3 and αVβ5) (human) (UniProt P06756); experiment: FACS, parental A375M cells, day 2
[3] = biological target: human αV on parental A375M cells (αVβ3 and αVβ5) (human) (UniProt P06756); experiment: FACS, parental A375M cells, day 1
[4] = biological target: cynomolgus αVβ6 on cells (cynomolgus); experiment: FACS, HEK-293 cells transfected with cynomolgus αV and β6, day 2
[5] = biological target: α4β1 integrin on J6.77 cells (UniProt P13612); experiment: cell-based or functional assay
[6] = biological target: cynomolgus αVβ6 on cells (cynomolgus); experiment: FACS, K562 cells expressing cynomolgus αVβ6 (parental 12)
[7] = biological target: mouse αVβ6 on cells (mouse) (UniProt P43406); experiment: FACS, K562 cells expressing mouse αVβ6 (parental 12)
[8] = biological target: human αV on parental A375M cells (αVβ3 and αVβ5) (human) (UniProt P06756); experiment: cell-based or functional assay
[9] = biological target: cynomolgus αVβ6 on cells (cynomolgus); experiment: FACS, transiently transfected HEK-293 cells
[10] = biological target: cynomolgus β6 on transfected HEK-293 cells (cynomolgus); experiment: FACS, transiently transfected HEK-293 cells
[11] = biological target: mouse αVβ6 on cells (mouse) (UniProt P43406); experiment: FACS, K562 cells expressing mouse αVβ6 (parental 46)
[12] = biological target: cynomolgus αVβ6 on cells (cynomolgus); experiment: FACS, K562 cells expressing cynomolgus αVβ6 (parental 46)
[13] = biological target: α5β1 integrin on K562 cells (UniProt P08648); experiment: cell-based or functional assay
[14] = biological target: human αVβ6 integrin on cells (human) (UniProt P06756); experiment: FMAT, 1 ug/mL on HEK 293 cells stably overexpressing αVβ6
[15] = biological target: mouse αVβ6 on cells (mouse) (UniProt P43406); experiment: FACS, K562 cells expressing mouse αVβ6 (parental 15)
[16] = biological target: cynomolgus αVβ6 on cells (cynomolgus); experiment: FACS, K562 cells expressing cynomolgus αVβ6 (parental 15)
[17] = biological target: human αV on parental A375M cells (αVβ3 and αVβ5) (human) (UniProt P06756); experiment: FACS, 1 ug/ml, parental A375M cells, day 2
[18] = biological target: human αVβ6 integrin on cells (human) (UniProt P06756); experiment: cell-based or functional assay
[19] = biological target: cynomolgus αVβ6 on cells (cynomolgus); experiment: FACS, 1 ug/ml, HEK-293 cells transfected with cynomolgus αV and β6, day 1
[20] = biological target: cynomolgus αVβ6 on cells (cynomolgus); experiment: FACS, 1 ug/ml, HEK-293 cells transfected with cynomolgus αV and β6, day 2
[21] = biological target: human αV on parental A375M cells (αVβ3 and αVβ5) (human) (UniProt P06756); experiment: FACS, 1 ug/ml, parental A375M cells, day 1
soluble αVβ6 (human) = soluble αVβ6 (human) (UniProt P06756); experiment: ELISA, 1 ug/mL on coated soluble αVβ6
[22] = biological target: mouse αVβ6 on cells (mouse) (UniProt P43406); experiment: FACS, K562 cells expressing mouse αVβ6 (parental 23)
[23] = biological target: cynomolgus αVβ6 on cells (cynomolgus); experiment: FACS, K562 cells expressing cynomolgus αVβ6 (parental 23)

Chain of human αVβ6 integrin on cells (human) (P06756 31-1048, chain 1 of 2): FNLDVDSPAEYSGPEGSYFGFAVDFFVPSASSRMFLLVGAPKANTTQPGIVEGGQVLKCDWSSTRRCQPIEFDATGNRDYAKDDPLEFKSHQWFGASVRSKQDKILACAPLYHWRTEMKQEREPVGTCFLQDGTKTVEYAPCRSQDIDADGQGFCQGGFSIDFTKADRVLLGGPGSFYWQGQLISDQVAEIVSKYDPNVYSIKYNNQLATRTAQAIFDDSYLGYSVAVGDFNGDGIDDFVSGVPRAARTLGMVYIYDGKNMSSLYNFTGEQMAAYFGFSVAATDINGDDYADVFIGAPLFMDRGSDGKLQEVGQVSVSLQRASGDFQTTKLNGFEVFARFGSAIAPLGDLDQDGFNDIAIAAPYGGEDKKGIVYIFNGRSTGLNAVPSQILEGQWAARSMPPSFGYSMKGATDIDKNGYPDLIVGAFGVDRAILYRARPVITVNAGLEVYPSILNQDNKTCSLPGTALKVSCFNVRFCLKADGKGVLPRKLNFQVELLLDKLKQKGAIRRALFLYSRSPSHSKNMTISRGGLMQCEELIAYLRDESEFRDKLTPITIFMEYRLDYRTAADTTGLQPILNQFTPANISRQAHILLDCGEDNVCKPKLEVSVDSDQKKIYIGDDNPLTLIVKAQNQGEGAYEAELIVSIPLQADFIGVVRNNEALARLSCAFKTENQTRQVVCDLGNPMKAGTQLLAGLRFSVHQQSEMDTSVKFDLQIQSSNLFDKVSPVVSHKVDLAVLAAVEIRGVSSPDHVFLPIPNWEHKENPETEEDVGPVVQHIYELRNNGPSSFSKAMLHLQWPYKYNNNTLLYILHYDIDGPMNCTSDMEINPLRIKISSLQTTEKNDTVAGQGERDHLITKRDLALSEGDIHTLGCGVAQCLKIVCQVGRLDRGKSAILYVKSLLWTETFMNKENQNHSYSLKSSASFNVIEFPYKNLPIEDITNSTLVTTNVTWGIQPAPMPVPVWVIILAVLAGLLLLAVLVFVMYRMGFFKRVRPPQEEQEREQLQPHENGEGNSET
Chain of human αVβ6 integrin on cells (human) (P18564 22-788, chain 2 of 2, further chain): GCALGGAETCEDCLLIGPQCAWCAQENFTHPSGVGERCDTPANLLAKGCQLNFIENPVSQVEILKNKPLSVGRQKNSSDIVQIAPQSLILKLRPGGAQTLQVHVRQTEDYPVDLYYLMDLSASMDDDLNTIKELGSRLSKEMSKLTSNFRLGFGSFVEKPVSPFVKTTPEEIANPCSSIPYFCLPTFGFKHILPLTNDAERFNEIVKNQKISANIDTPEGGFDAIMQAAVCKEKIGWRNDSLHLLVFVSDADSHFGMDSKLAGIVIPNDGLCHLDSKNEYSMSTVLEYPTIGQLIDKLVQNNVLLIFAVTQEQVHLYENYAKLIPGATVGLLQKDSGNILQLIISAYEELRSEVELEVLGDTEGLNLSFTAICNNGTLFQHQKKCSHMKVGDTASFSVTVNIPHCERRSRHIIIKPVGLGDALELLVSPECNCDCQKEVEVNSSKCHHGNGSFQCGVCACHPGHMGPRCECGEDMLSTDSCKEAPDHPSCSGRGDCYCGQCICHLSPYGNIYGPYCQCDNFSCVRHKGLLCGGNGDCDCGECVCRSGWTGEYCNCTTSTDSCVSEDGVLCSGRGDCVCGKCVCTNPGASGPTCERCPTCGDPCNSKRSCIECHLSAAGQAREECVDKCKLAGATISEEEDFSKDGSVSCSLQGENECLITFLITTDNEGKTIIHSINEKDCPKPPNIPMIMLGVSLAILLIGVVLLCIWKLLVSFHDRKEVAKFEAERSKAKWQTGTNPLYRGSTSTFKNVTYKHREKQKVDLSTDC
Chain of mouse αVβ6 on cells (mouse) (P43406 31-1044, chain 1 of 2): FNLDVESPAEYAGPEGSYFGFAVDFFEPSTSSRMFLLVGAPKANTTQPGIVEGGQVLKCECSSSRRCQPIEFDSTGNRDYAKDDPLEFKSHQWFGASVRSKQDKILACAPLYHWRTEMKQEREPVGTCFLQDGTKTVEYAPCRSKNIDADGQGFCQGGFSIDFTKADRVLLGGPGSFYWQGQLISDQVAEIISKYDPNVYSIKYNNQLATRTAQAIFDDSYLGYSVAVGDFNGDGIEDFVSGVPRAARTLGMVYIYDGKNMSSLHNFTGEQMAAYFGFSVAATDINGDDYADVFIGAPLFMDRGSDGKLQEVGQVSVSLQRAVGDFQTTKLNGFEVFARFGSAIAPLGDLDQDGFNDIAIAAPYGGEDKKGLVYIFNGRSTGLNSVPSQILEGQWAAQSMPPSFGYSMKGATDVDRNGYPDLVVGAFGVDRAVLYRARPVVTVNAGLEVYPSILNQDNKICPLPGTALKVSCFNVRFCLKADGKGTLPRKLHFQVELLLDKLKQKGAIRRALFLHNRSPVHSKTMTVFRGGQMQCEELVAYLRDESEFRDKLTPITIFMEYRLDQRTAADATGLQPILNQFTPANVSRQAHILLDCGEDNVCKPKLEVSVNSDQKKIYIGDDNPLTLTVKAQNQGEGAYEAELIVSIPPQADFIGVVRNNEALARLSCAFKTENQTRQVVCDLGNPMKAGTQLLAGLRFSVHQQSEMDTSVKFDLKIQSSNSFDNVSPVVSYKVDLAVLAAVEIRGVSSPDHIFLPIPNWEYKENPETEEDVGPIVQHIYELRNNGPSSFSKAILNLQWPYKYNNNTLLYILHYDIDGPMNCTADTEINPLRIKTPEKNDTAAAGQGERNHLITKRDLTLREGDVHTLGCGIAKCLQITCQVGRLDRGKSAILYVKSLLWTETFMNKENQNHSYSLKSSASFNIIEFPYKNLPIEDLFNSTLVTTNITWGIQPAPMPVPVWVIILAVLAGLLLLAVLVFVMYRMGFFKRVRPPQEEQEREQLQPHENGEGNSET
Chain of mouse αVβ6 on cells (mouse) (Q9Z0T9 22-787, chain 2 of 2, further chain): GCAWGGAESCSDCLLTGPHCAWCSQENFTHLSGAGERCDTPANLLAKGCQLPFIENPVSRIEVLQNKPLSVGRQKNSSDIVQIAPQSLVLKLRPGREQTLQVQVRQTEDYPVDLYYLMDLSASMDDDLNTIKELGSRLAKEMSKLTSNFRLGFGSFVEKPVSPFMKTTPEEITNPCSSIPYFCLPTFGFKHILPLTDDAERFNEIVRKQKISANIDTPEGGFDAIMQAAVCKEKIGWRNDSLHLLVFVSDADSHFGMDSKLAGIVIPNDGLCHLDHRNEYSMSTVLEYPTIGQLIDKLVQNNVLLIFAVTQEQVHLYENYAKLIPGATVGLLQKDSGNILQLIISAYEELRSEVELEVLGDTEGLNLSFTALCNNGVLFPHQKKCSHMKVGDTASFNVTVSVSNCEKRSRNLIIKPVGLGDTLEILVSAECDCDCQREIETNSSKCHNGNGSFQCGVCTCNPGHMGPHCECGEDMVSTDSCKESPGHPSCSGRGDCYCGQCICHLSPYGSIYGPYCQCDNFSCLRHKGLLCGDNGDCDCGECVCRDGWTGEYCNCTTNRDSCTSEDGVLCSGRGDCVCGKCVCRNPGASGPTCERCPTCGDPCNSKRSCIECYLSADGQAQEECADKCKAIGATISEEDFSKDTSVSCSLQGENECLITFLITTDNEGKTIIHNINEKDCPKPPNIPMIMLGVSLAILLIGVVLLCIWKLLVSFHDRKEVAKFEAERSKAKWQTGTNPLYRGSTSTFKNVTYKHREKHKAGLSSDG

Substance: Mouse IgG2 with Murine Secondary Antibody
- Mac AVB6 % Cells Shifted [1]: 1%
- Mac AVB6 GeoMean [1]: 8.85
- A375M % Shifted Cells [2]: 3%
- A375M GeoMean [2]: 11.2
- A375M % Shifted Cells [3]: 4%
- A375M GeoMean [3]: 1.67
- Mac AVB6 % Cells Shifted [4]: 0%
- Mac AVB6 GeoMean [4]: 11.2

Substance: Mouse IgG Control (antibody)
- Percent Inhibition, adhesion of A375M cells to osteopontin peptide, 5 µg/ml [8]: 5%

Substance: Human IgG4 (antibody)
- Percent Inhibition, adhesion of J6.77 cells to CS-1 peptide of fibronectin, 5 ug/ml [5]: 15%

Substance: Human IgG Isotype Control (antibody)
- Mac AVB6 % Cells Shifted [1]: 1%
- Mac AVB6 GeoMean [1]: 9.54
- A375M % Shifted Cells [2]: 1%
- A375M GeoMean [2]: 7.23
- A375M % Shifted Cells [3]: 5%
- A375M GeoMean [3]: 1.66
- % Inhibition, adhesion of K562 cells to fibronectin [13]: -12%
- Percent Inhibition, adhesion of K562 cells to FN9-10 peptide of fibronectin, 5 µg/ml [13]: 11%
- Percent Inhibition, adhesion of A375M cells to osteopontin peptide, 5 µg/ml [8]: 3%
- Mac AVB6 % Cells Shifted [4]: 0%
- Mac AVB6 GeoMean [4]: 7.39

Substance: murine αVβ6 antibody (Cat#MAB2077z, Chemicon)
- percent of cells shifted [9]: 20%
- percent of cells shifted [10]: 5%
- FMAT FL1XCount [14]: 44200
- Geometric Mean Shift (arbitrary units) [15]: 122
- Geometric Mean Shift (arbitrary units) [16]: 84
- A375M % Shifted Cells [17]: 5%
- A375M GeoMean [17]: 15.4
- Estimated IC50, adhesion of HT29 cells to TGFβLAP, n = 1 [18]: 0.226 µg/mL
- Estimated IC50, adhesion of HT29 cells to TGFβLAP, n = 2 [18]: 0.185 µg/mL
- Estimated IC50, adhesion of HT29 cells to TGFβLAP, n = 3 [18]: 0.286 µg/mL
- Mac AVB6 % Cells Shifted [19]: 42%
- Mac AVB6 GeoMean [19]: 55.5
- Mac AVB6 % Cells Shifted [20]: 11%
- Mac AVB6 GeoMean [20]: 28.1
- A375M % Shifted Cells [21]: 30%
- A375M GeoMean [21]: 2.03
- ELISA OD (soluble αVβ6 (human)): 6 OD

Results, then the substance that gave them:

- Percent Inhibition, adhesion of J6.77 cells to CS-1 peptide of fibronectin, 5 ug/ml [5]: 13%
- Percent Inhibition, adhesion of J6.77 cells to CS-1 peptide of fibronectin, 5 µg/ml [5]: -9%
Substance: Human IgG2 (antibody)

- Geometric Mean Shift (arbitrary units) [6]: 13
- Geometric Mean Shift (arbitrary units) [7]: 20
Substance: Mouse IgG1 (antibody)

- percent of cells shifted [9]: 0%
- percent of cells shifted [10]: 1%
- Geometric Mean Shift (arbitrary units) [11]: 108
- Percent Inhibition, adhesion of J6.77 cells to CS-1 peptide of fibronectin, 5 ug/ml [5]: 26%
- Percent Inhibition, adhesion of J6.77 cells to CS-1 peptide of fibronectin, 5 µg/ml [5]: -6%
- Geometric Mean Shift (arbitrary units) [12]: 54
Substance: Human IgG1 (antibody)

- Geometric Mean Shift (arbitrary units) [22]: 36
- Geometric Mean Shift (arbitrary units) [23]: 25
Substance: Mouse IgG2a (antibody)
